Patent US20250320281A1

Columns and labels:
[1] = molecular target: HIV-1 Env of isolate 94 KE 105 (subtype AC) (HIV-1); test: cell-based or functional assay
[2] = molecular target: HIV-1 Env of isolate 92UG037 (subtype A) (HIV-1); test: cell-based or functional assay
[3] = molecular target: HIV-1 envelope glycoprotein (Env) of isolate MGRM-Chronic-B-002 (HIV-1); test: cell-based or functional assay
[4] = molecular target: HIV-1 Env of isolate 92WR020 (subtype A) (HIV-1); test: cell-based or functional assay
[5] = molecular target: HIV-1 Env of isolate 92WR021 (subtype A) (HIV-1); test: cell-based or functional assay
[6] = molecular target: HIV-1 92BR020 Env (pseudovirus) (HIV-1); test: cell-based or functional assay
[7] = molecular target: HIV-1 Env of isolate 93WR029 (subtype A) (HIV-1); test: cell-based or functional assay
[8] = molecular target: HIV-1 Env of isolate 92UG031 (subtype A) (HIV-1); test: cell-based or functional assay
[9] = molecular target: HIV-1 envelope glycoprotein (Env) of isolate 6535.3 (HIV-1); test: cell-based or functional assay
[10] = molecular target: HIV-1 envelope glycoprotein (Env) of isolate MGRM-Chronic-B-004 (HIV-1); test: cell-based or functional assay
[11] = molecular target: HIV-1 Env of isolate 92WR026 (subtype A) (HIV-1); test: cell-based or functional assay
[12] = molecular target: HIV-1 Env of isolate MGRM-G-013 (HIV-1); test: cell-based or functional assay
[13] = molecular target: HIV-1 envelope glycoprotein (Env) of isolate 92BR020 (HIV-1); test: cell-based or functional assay
[14] = molecular target: HIV-1 envelope glycoprotein (Env) of isolate MGRM-Chronic-B-008 (HIV-1); test: cell-based or functional assay
[15] = molecular target: HIV-1 envelope glycoprotein (Env) of isolate JR-FL (HIV-1); test: cell-based or functional assay
[16] = molecular target: HIV-1 envelope glycoprotein (Env) of isolate APV_6 (HIV-1); test: cell-based or functional assay
[17] = molecular target: HIV-1 Env of isolate 92WR009 (subtype A) (HIV-1); test: cell-based or functional assay
[18] = molecular target: HIV-1 envelope glycoprotein (Env) of isolate MGRM-Chronic-B-003 (HIV-1); test: cell-based or functional assay
[19] = molecular target: HIV-1 Env of isolate 92RW008 (subtype A) (HIV-1); test: cell-based or functional assay
[20] = molecular target: HIV-1 envelope glycoprotein (Env) of isolate MGRM-Chronic-B-001 (HIV-1); test: cell-based or functional assay
[21] = molecular target: HIV-1 Env of isolate 92WR021 (HIV-1); test: cell-based or functional assay
[22] = molecular target: JR-FL gp120 ΔV1/ΔV2 (HIV-1); test: ELISA, antigen-coated wells
[23] = molecular target: HIV-1 Env of pseudovirus MGRM-F1-013 (HIV-1); test: cell-based or functional assay
[24] = molecular target: HIV-1 Env of pseudovirus MGRM-AE-008 (clade CRF01_AE) (HIV-1); test: cell-based or functional assay
[25] = molecular target: HIV-1 Env of isolate 6535.3 (Acute), clade B, on pseudovirus (HIV-1); test: cell-based or functional assay
[26] = molecular target: HIV-1 envelope glycoprotein (Env) of isolate MGRM-A-013, clade A (HIV-1); test: cell-based or functional assay

4993_K13 (PGT-141) (antibody), sequence (VH): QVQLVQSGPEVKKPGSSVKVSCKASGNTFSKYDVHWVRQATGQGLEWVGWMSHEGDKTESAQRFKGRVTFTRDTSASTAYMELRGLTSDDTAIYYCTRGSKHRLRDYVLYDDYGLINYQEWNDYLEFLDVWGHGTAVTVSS
4993_K13 (PGT-141) (antibody), sequence (VL): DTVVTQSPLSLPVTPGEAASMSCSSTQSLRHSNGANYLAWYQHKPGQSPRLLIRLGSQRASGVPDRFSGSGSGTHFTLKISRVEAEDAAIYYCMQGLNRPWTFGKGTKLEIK
4980_N08 (PGT-143) (antibody), sequence (VH): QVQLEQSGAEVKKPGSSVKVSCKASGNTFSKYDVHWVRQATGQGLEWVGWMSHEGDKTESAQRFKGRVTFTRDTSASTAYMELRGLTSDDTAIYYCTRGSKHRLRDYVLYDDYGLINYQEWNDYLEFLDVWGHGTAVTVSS
4980_N08 (PGT-143) (antibody), sequence (VL): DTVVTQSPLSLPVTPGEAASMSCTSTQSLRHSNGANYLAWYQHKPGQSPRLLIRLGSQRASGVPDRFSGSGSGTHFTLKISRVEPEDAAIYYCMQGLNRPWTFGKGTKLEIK
4995_E20 (PGT-142) (antibody), sequence (VH): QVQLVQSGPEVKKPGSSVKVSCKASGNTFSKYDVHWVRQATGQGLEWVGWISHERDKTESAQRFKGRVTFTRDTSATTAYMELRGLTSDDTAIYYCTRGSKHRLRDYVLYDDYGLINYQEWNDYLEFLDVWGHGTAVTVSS

Substance	IC50 (µg/mL), pseudovirus neutralization [1] [µg/mL]	IC50 (µg/mL), pseudovirus neutralization [2] [µg/mL]	IC50 (µg/mL), pseudovirus neutralization [3] [µg/mL]	IC50 (µg/mL), pseudovirus neutralization [4] [µg/mL]	IC50 (µg/mL), pseudovirus neutralization [5] [µg/mL]	neutralization IC50 (pseudovirus) [6] [µg/mL]	IC50 (µg/mL), pseudovirus neutralization [7] [µg/mL]	IC50 (µg/mL), pseudovirus neutralization [8] [µg/mL]	IC50 (µg/mL), pseudovirus neutralization [9] [µg/mL]	IC50 (µg/mL), pseudovirus neutralization [10] [µg/mL]	IC50 (µg/mL), pseudovirus neutralization [11] [µg/mL]	IC50 (µg/mL), pseudovirus neutralization [12] [µg/mL]	IC50 (µg/mL), pseudovirus neutralization [13] [µg/mL]	IC50 (µg/mL), pseudovirus neutralization [14] [µg/mL]	IC50 (µg/mL), pseudovirus neutralization [15] [µg/mL]	IC50 (µg/mL), pseudovirus neutralization [16] [µg/mL]	IC50 (µg/mL), pseudovirus neutralization [17] [µg/mL]	IC50 (µg/mL), pseudovirus neutralization [18] [µg/mL]	IC50 (µg/mL), pseudovirus neutralization [19] [µg/mL]	IC50 (µg/mL), pseudovirus neutralization [20] [µg/mL]	also measured
4980_N08 (PGT-143) (antibody)	0.368	0.854	> 50	> 50	> 50	> 10	0.053	0.095	> 50	0.395	5.36	> 50	25.9	> 50	> 50	14	0.01	0.854	0.385	> 50	
4993_K13 (PGT-141) (antibody)	0.204	1.28	> 50	> 50	> 50	> 10	0.019	0.093	> 50	0.586	1.78	> 50	20.3	> 50	> 50	14.2	0.022	0.4	0.579	> 50	
4995_E20 (PGT-142) (antibody)	0.19	0.557	> 50	31.5	> 50	> 10	0.014	0.05	> 50	0.172	1.78	> 50	15.1	> 50	> 50	4.72	0.006	0.484	0.447	> 50	
5114_A19 (PGT-128) (antibody)																					IC50 [21]: 0.005 µg/mL; EC50 [22]: 0.3 µg/mL
5136_H01 (PGT-131) (antibody)																					IC50 [21]: 0.012 µg/mL
5147_N06 (PGT-130) (antibody)						1.12															Neutralization by PGT-130, IC50 [6]: 1.12 µg/mL; Neutralization by PGT-130, IC80 [6]: > 10 µg/mL; Neutralization by PGT-130, IC90 [6]: > 10 µg/mL; Neutralization by PGT-130, IC95 [6]: > 10 µg/mL; IC50 [21]: 0.004 µg/mL
PGV04 (antibody)												0.168									
VRC01 (antibody)	0.499	0.245	0.117	0.13	0.066		1.57	0.469	1.75	0.055		0.553	0.29	0.155	0.034	1.81	0.187	0.1	0.037	0.066	
b12 (antibody)																					IC50 (µg/ml), pseudovirus neutralization [23]: > 50 µg/mL; IC50 [24]: > 50 µg/mL; IC50 (µg/ml), pseudovirus neutralization [25]: 1.93 µg/mL; IC50 (µg/ml), pseudovirus neutralization [26]: 7.04 µg/mL
